In paper PMC7050208:

System: N[C@@H](CCOP(=O)(O)O)C(=O)O
Assay: coupled MESG/PNP phosphate release, A360
Format: biochemical, Bacillus spizizenii
Conditions: 50 mM HEPES-NaOH pH 7.5, 100 μM PLP

In the case of BsThrC (Bacillus spizizenii), the Km (0.1 μM enzyme) is reported as 329 µM and the kcat (0.1 μM enzyme) is reported as 1.74 s⁻¹.
Work on “RhiB (Bacillus spizizenii ATCC 6633 = JCM 2499)” yielded a Km (0.25 μM enzyme) of 824 µM and a kcat (0.25 μM enzyme) of 0.60 s⁻¹.
